{
  "source": "patent US20240018513A1",
  "about": "“SYNTHETIC INTRONS FOR TARGETED GENE EXPRESSION” (FRED HUTCHINSON CANCER CENTER, priority 2020, published 2024)",
  "key": {"[1]": {"test_system": "SF3B1-mutant K562 cells", "assay": "Mini-screen: pooled synthetic intron mini-library in HSV-TK, GCV treatment, full-length intron sequencing from genomic DNA", "format": "cell-based", "conditions": "genotype K700E (SF3B1+/K700E) K562; GCV 100 ug/mL; day 6; vector hPGK-PuroR-P2A-HSV-TK", "description": "Therefore, a massively parallel splicing assay was developed to map and functionally interrogate key sequence features within the synthetic intron. First, a pilot mini-library of eight synthetic introns was synthesized, seven of which were much shorter (lengths of 100-158 nt) than the parent synthetic intron (synMTERFD3i1-250), and each with one or more perturbations to potentially critical features (FIG. 2E). This mini-library was cloned into HSV-TK, introduced into WT or SF3B1-mutant K562 cells with a lentiviral vector at a low multiplicity of infection, and treated with GCV. Relative depletion of each construct was measured by high-throughput sequencing of the entire introns from genomic DNA after six days of treatment (TABLE 1).\nEach synthetic intron used in the mini-library was ordered individually as a gBlock (Integrated DNA Technologies), consisting of the desired intron flanked by homology arms for cloning (5′ arm: […] (SEQ ID NO:158); 3′ arm: […] (SEQ ID NO:159; TABLE 3). The gBlocks were then mixed in equal proportions before being cloned into hPGK-PuroR-P2A-HSV-TK using a previously published strategy for pooled cloning (Thomas, J. D. et al. RNA isoform screens uncover the essentiality and tumor-suppressor activity of ultraconserved poison exons. Nature genetics 52, 84-94 (2020), incorporated herein by reference in its entirety). This intron mix was then amplified using NEBNext High Fidelity Ready Mix (New England Biolabs) and purified using 1.8×AMPure XP SPRI beads (Beckman Coulter). The backbone for the library was amplified using Q5 polymerase (New England Biolabs). The library was transformed and amplified using Endura ElectroCompetent Cells (Lucigen, 60242-2) and large LB plates. The library was maxiprepped using a Macherey-Nagel MaxiPrep kit (Thermo Fisher Scientific, Cat 740414.10).\nWT or SF3B1-mutant K562 cells were infected with lentivirus encoding the mini-library at an MOI of 0.3 and untreated or treated with GCV (100 ug/mL) for 6 days. Genomic DNA was collected at day 6 and the resulting Illumina libraries were sequenced with 2×150 bp reads (Illumina MiSeq). Depletion/enrichment of each construct was estimated as follows. For each sample, reads were normalized to the total reads mapped. The relative fraction of reads mapping to each intron was then estimated by dividing the numbers of normalized reads mapped to an intron by the total reads mapped in the sample. The standard deviation was calculated using the sample proportion P for each intron (σ=sqrt [P(1−P)/n]). A fold-change was calculated for each intron by dividing the proportion of the intron in the treated GCV samples by the fraction of the intron in the untreated samples. Error propagation was used to estimate the standard deviation. The final relative fold-changes were computed by normalizing fold-changes such that the fold-change of synMTERFD3i1-250 in the pilot screen was identical to the experimentally measured fold-change in a single-construct experiment (FIG. 2C, 100 μg/mL of GCV)."}, "[2]": {"test_system": "T47D cells", "assay": "T47D subcutaneous xenografts, doxycycline-inducible SF3B1 WT or K700E, GCV or PBS", "format": "in vivo, NSG mice", "conditions": "GCV vs PBS"}},
  "data": [
    {"molecule": "intron_26: 150 nt MTERFD3 intron 1-derived synthetic intron, deletion 25to125; SEQ ID NO 58/66 (nucleic acid) DNA 1: GTGAGTCGCCCCCTTCCTCTGCTCCGAGAGGGAAATGGGAATTAGGGTGGTGGCAGAGCCCAAAGAGGCCTTGTAGGCCATGGTAAGGCATTTCTATGTTTTATTTTACTTTGTCTTTATCCTAAAATGCCATTGGCAAGTTTATTGCAG DNA 2: GTGAGTCGCCCCCTTCCTCTGCTCCGAGAGGGAAATGGGAATTAGGGTGGTGGCAGAGCCCAAAGAGGCCTTGTAGGCCATGGTAAGGCATTTCTATGTTTTATTTTACTTTGTCTTTATCCTAAAATGCCATTGGCAAGTTTATTGCAG", "values": [
      {"measurement": "fold-change (estimated fold-change in intron abundance in gDNA)", "setting": "[1]", "value": 0.282},
      {"measurement": "tumor burden (tumor volume)", "setting": "[2]", "value": "specifically reduced tumor burden in the GCV-treated arm engrafted with SF3B1K700E-expressing cells"}
    ]}
  ]
}
